# Reference: the RNAGym collection of RNA variant scans (doi:10.1073/pnas.2313332121)
# This sample holds only a part of the variants without activity.
# B1: TPR 5TU (parent)
# chain: GGAUCUUCUCGAUCUAACAAAAAAGACAAAUCUGCCACAAAGCUUGAGAGCAUCUUCGGAUGCAGAGGCGGCAGCCUUCGGUGGCGCGAUAGCGCCAACGUUCUCAACUAUGACACGCAAAACGCGUGCUCCGUUGAAUGGAGUUUAUCAUG
# Variants of: B1
# Assay: polymerase ribozyme fitness, log enrichment relative to wild type (log ratio); higher = more active; in vitro selection for triplet polymerase activity
# Procedure, shortened: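 Input and output libraries were sequenced on Illumina after a single in vitro selection round, run in triplicate on PCR-built, transcribed mutant libraries of each subunit of a heterodimeric triplet polymerase ribozyme. Selection annealed libraries to a biotinylated primer, the partner subunit and triplets, incubated them frozen at −7 °C, then gel-excised extended constructs for streptavidin-bead capture and RT-PCR. Genotypes with ≥10 input reads and ≥1 read per output were kept. Fitness is the logarithm, taken in base 2, of genotype enrichment divided by wild-type enrichment, using inverse-variance-weighted replicate averages.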
row,Variant,polymerase ribozyme fitness (log ratio)
1,A49C A64U C75U C76U U135G,≤ -4.2
2,A49G C69U,-1.39
3,A49C G58A G65A U139A,≤ -4.2
4,G48U G86U,-1.58
5,G48C C51A C54A C63U G68A U77C G88A C96U A142G,≤ -4.2
6,A49C A64U G67U G68A G71A,≤ -4.2
7,A49C G59C A91U,≤ -4.2
8,G48A U56A C85U A110G G141U,≤ -4.2
9,A47U C85A,-2.21
10,A47U C85G,-2.65
11,A47U G83C A142G,-2.42
12,A47U C95U A115G,-2.68
13,G48A G67U G84U C105G,≤ -4.2
14,A47U C96A G126A C129A A137U,≤ -4.2
15,G48A C57G G83C C87G U102A G112C A119C,≤ -4.2
16,A49C G141U,-3.13
17,G48C C76A C93U G94A A138C G140A U146G,≤ -4.2
18,A49C U146A,-3.98
19,A49G U53A,-1.54
20,A47U C95U,-0.679
21,G48U U134G,-2.34
22,A49C U55G A60U G65A G74C U77A,≤ -4.2
23,G48A G84C G100C,≤ -4.2
24,G48A C125U,-0.97

row,Variant,polymerase ribozyme fitness (log ratio)
1,A47U G70U A122G,-3.45
2,G48C A73U U101C U104A A115G G124U,≤ -4.2
3,A49G C51G U78C C96G,-4.14
4,G48A C69G G84U,-2.41
5,G48C U102G,-2.42
6,A49C U134G,≤ -4.2
7,A49G C54A C116G A121U,-2.34
8,G48A A150U,-0.592
9,A49G A66G G71C C87G C95G A120G G124C A142U,≤ -4.2
10,A49C C99U U102G,-0.308
11,A49C U109G,≤ -4.2
12,G48A G86C C123A C125G,-3.94
13,A49C G65U G84U C96U A121U C125G,≤ -4.2
14,A49C A64U C87A U104G G143A,≤ -4.2
15,G48C G80A C85U A120U A137G,≤ -4.2
16,A49C C93U,≤ -4.2
17,A49G U53C A98U A121G,-1.87
18,A49C G81C C85U A98U U104C,≤ -4.2
19,A49C A52U A60G G94A A97G,-3.63
20,G48U U55G C118G C131U A137C U145A,≤ -4.2
21,G48A A73G C87G A89U C96A G136A,≤ -4.2
22,A47U U55G G68A G84U U151A,≤ -4.2
23,A47U U61A,-1.41
24,G48A C57A,0.284

row,Variant,polymerase ribozyme fitness (log ratio)
1,A49C G81A G92U C93U G140U G152C,≤ -4.2
2,A49G G117A,-0.467
3,A49G G117U,-0.367
4,G48C G62C C108G A137U U146A,≤ -4.2
5,G48C U53C G136U,-3.16
6,A49G C85U G117U U135C G143C,-4.06
7,G48C C79A G86U C96U G124A,≤ -4.2
8,G48C C118U,-0.625
9,G48A C85G C125G,-4.1
10,G48A C103A,-1.74
11,G48A A52G C116U,-0.319
12,A49C G71A,≤ -4.2
13,A49C G62A C87A G140C,≤ -4.2
14,A49C U55G U61A C96A U111G A119U U148C,≤ -4.2
15,G48U A52C C93U,-3.41
16,G48A U55A,-1.14
17,A49C C75G C87A,≤ -4.2
18,A49G A52C G86C,-3.61
19,A49C U56A A113U G152U,-3.93
20,G48C U61A U77A C125U U144A,≤ -4.2
21,A49G G50U C87G U144G,≤ -4.2
22,G48U U56A C87G U90C,-4.07
23,G48C A120C,-0.573
24,A47U C51U C87U A113U G152A,-3.99

row,Variant,polymerase ribozyme fitness (log ratio)
1,A49G G50A G84A A97G,-3.11
2,A47U G84U,-1.78
3,G48U U77C C79G G143U,≤ -4.2
4,A49C A115U,≤ -4.2
5,A47U G81A C125G A150C,≤ -4.2
6,G48C G68C G70A C129G,≤ -4.2
7,G48C C96G C103G C105G A106G,-3.96
8,G48A G136C,-2.57
9,A49C C54A U78C C85U,-3.91
10,A49C U53G U56C A119C,≤ -4.2
11,G48A A60G G83U G126U U134C,-3.58
12,A49C U145G,≤ -4.2
13,A49C U56A C69A C99A,≤ -4.2
14,G48U A120U,-0.0736
15,G48A C93G,-3.69
16,A49C C116A G143C,≤ -4.2
17,G48C G83U,-1.41
18,A47U C93G,-3.23
19,A49C A66G,≤ -4.2
20,A49C A66U,≤ -4.2
21,A49C G50U U78G C85U A97G U102G A107U A142C,≤ -4.2
22,G48A C79A C85G A110U G124A,≤ -4.2
23,G48U C85U,-0.485
24,G48A G62A G68C U78G C87A A91U A98U,≤ -4.2

row,Variant,polymerase ribozyme fitness (log ratio)
1,G48C C85A C118A,-1.39
2,G48U U56A G67A A73C G86U A107G,≤ -4.2
3,A49G G50A U56A C95U U101C U111G,≤ -4.2
4,A47U A89G C131A,≤ -4.2
5,G48C C85U,-1.95
6,A49C C96G,-3.45
7,A49C C57U G74U U90A C93G C95U C103G A138C,≤ -4.2
8,A49C G84U A107G U111G A120G,≤ -4.2
9,A49G C54U U109G,-2.26
10,G48A A137G C149U,-3.82
11,G48A U55A A119U G124U U144C,-1.13
12,A49C A60G G67U C85U C93G A97G,≤ -4.2
13,A47U C85U A150C,≤ -4.2
14,A47U C87U A91U C95U C114G A120C,≤ -4.2
15,G48U U146G,-1.42
16,A47U C54A C75G G140A,≤ -4.2
17,A49C C51U C95U C96A G112A G126A,≤ -4.2
18,A49C C69U G84A C93U C96U C129G U148C,≤ -4.2
19,A49C G124U,≤ -4.2
20,A47U U55G G94A,-0.633
21,G48A G62A A73U A91G C95G U139A A142C,≤ -4.2
22,A47U U56A A122G U127C,-2.55
23,A47U C57U,0.131
24,A47U C54U U56A G84C C99A C108U C114U G126U,≤ -4.2

row,Variant,polymerase ribozyme fitness (log ratio)
1,A47U C114U,-1.72
2,A47U U55A C87U,-2.17
3,G48C A91U G143C,≤ -4.2
4,A49G C51A U53C C87G,≤ -4.2
5,G48C U55A C93G,-3.87
6,A49C U55G C76U C87A C99U C105U A120U,≤ -4.2
7,A49C A107G U151C,≤ -4.2
8,A47U A97C,0.501
9,G48U A49C G68U G74A C76A G88U C116G,≤ -4.2
10,A47U C76U A119C U139G,-2.8
11,A49C A73G C93U U127A,≤ -4.2
12,A49G G59U A97U G143A,-3.58
13,G48A U127G,-3.5
14,G48A G67U G80C C85U C132U,≤ -4.2
15,A47U G58C U61G G81A,-3.65
16,A49G U53A G59A A142U,-2.64
17,A49C A137C,≤ -4.2
18,A49G G68U G133A,≤ -4.2
19,G48C C99U C105G,≤ -4.2
20,G48A U56A U109G,-1.39
21,G48U A73G,-1.15
22,A49G C63A G71U G83U A122U A150U,≤ -4.2
23,G48C G59A C85U C129A,-4.08
24,G48A C75U C87A G143A,≤ -4.2

row,Variant,polymerase ribozyme fitness (log ratio)
1,A47U G83U A122U,-0.574
2,A49G U53A U144G,-0.883
3,G48A C96U,-0.356
4,G48A C96A,-1.51
5,A49G C51A G94A G124U,-3.32
6,A49G A91G A142C,-3.71
7,A49C U56C,≤ -4.2
8,G48A A52G U55G G70C C96A,≤ -4.2
9,A49C U55A G86A C99G A142U,≤ -4.2
10,A49G A52C U56A A91G G92A A121G,-3.9
11,A47U G62A U127C G133U,≤ -4.2
12,A49G U53C C114U,-2.54
13,A49G G88U C96G U144C U148C U151G,≤ -4.2
14,G48C A64G G70U G94U U144G C149A,≤ -4.2
15,A49G G58C,-0.689
16,G48C C63A G83A G133C,-3.98
17,G48U G59U,0.371
18,A49C U56A A64G C87U,≤ -4.2
19,G48C G59C G92U C99G A106U,≤ -4.2
20,A47U U77C,-4.09
21,G48U G92U U144C,-0.761
22,A47U G81C C85G G86U C95U A106C G143A,≤ -4.2
23,G48C C85U U102G U104A C118U C125A,-4.14
